[ ]: non-standard residue; d: D form.
The binders below were run against T1, (7× His)-PSD-95-PDZ2 wild type (UniProt P78352 160-246) (assay: FP competition).
T1 construct: domain: PDZ2; recombinant from E. coli; also called PSD-95-PDZ2 WT; not shown: 7x His tag
T1 sequence (P78352 160-246): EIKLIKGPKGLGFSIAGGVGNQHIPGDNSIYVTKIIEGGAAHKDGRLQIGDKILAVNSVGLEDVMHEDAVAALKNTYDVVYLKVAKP

Row | Binder | Ki [µM] | Relative Ki (Ki mut/Ki WT)
1 | cyclo(THLETTFTGAGTPKTIRVTQ[dP]GQ) (SMILES CC[C@H](C)[C@@H]1NC(=O)[C@H]([C@@H](C)O)NC(=O)[C@H](CCCCN)NC(=O)[C@@H]2CCCN2C(=O)[C@H]([C@@H](C)O)NC(=O)CNC(=O)[C@H](C)NC(=O)CNC(=O)[C@H]([C@@H](C)O)NC(=O)[C@H](Cc2ccccc2)NC(=O)[C@H]([C@@H](C)O)NC(=O)[C@H]([C@@H](C)O)NC(=O)[C@H](CCC(=O)O)NC(=O)[C@H](CC(C)C)NC(=O)[C@H](Cc2c[nH]cn2)NC(=O)[C@H]([C@@H](C)O)NC(=O)[C@H](CCC(N)=O)NC(=O)CNC(=O)[C@H]2CCCN2C(=O)[C@H](CCC(N)=O)NC(=O)[C@H]([C@@H](C)O)NC(=O)[C@H](C(C)C)NC(=O)[C@H](CCCNC(=N)N)NC1=O) [cyclic nNOS β-hairpin peptide D114A] | 3.22 | 2.15
2 | cyclo(THLATTFTGDGTPKTIRVTQ[dP]GQ) (SMILES CC[C@H](C)[C@@H]1NC(=O)[C@H]([C@@H](C)O)NC(=O)[C@H](CCCCN)NC(=O)[C@@H]2CCCN2C(=O)[C@H]([C@@H](C)O)NC(=O)CNC(=O)[C@H](CC(=O)O)NC(=O)CNC(=O)[C@H]([C@@H](C)O)NC(=O)[C@H](Cc2ccccc2)NC(=O)[C@H]([C@@H](C)O)NC(=O)[C@H]([C@@H](C)O)NC(=O)[C@H](C)NC(=O)[C@H](CC(C)C)NC(=O)[C@H](Cc2c[nH]cn2)NC(=O)[C@H]([C@@H](C)O)NC(=O)[C@H](CCC(N)=O)NC(=O)CNC(=O)[C@H]2CCCN2C(=O)[C@H](CCC(N)=O)NC(=O)[C@H]([C@@H](C)O)NC(=O)[C@H](C(C)C)NC(=O)[C@H](CCCNC(=N)N)NC1=O) [cyclic nNOS β-hairpin peptide E108A] | 21.2 | 14.1
3 | cyclo(THLETTFTADGTPKTIRVTQ[dP]GQ) (SMILES CC[C@H](C)[C@@H]1NC(=O)[C@H]([C@@H](C)O)NC(=O)[C@H](CCCCN)NC(=O)[C@@H]2CCCN2C(=O)[C@H]([C@@H](C)O)NC(=O)CNC(=O)[C@H](CC(=O)O)NC(=O)[C@H](C)NC(=O)[C@H]([C@@H](C)O)NC(=O)[C@H](Cc2ccccc2)NC(=O)[C@H]([C@@H](C)O)NC(=O)[C@H]([C@@H](C)O)NC(=O)[C@H](CCC(=O)O)NC(=O)[C@H](CC(C)C)NC(=O)[C@H](Cc2c[nH]cn2)NC(=O)[C@H]([C@@H](C)O)NC(=O)[C@H](CCC(N)=O)NC(=O)CNC(=O)[C@H]2CCCN2C(=O)[C@H](CCC(N)=O)NC(=O)[C@H]([C@@H](C)O)NC(=O)[C@H](C(C)C)NC(=O)[C@H](CCCNC(=N)N)NC1=O) [cyclic nNOS β-hairpin peptide G113A] | 4.55 | 3.03

Target: T1, (7× His)-PSD-95-PDZ2 wild type
Experiment: FP competition
Remark: another data set of the same source
Method: Fluorescence polarization (FP). FP assays were performed in a 384-well plate format. Fluorescence polarization was measured using a Safire 2 plate reader. The instrument Z-factor was optimized for each assay. The G-factor was calibrated to an initial milli polarization value of 20. […] Every measurement was performed in NaPI 50 mM, 50 mM NaCl and 1% BSA at pH 7.2, 25° C. […] The curves were done in triplicates. Then, the polarization was fitted into a one-site binding model using Prism software 8.0 (GraphPad), from which the Kd can be measured. […] The mili polarization (mP) values were plotted as a function of peptide concentration and fitted to a sigmoidal dose-response curve using Prism software 8.0 (GraphPad). The Kᵢ values were calculated according to Nikolovska-Coleska Z. et al.⁴⁰⁻⁴¹

Row | Binder | Ki [µM] | Relative Ki (Ki mut/Ki WT)
4 | cyclo(THLETTFTGDGTPKTIRVRQ[dP]GQ) (SMILES CC[C@H](C)[C@@H]1NC(=O)[C@H]([C@@H](C)O)NC(=O)[C@H](CCCCN)NC(=O)[C@@H]2CCCN2C(=O)[C@H]([C@@H](C)O)NC(=O)CNC(=O)[C@H](CC(=O)O)NC(=O)CNC(=O)[C@H]([C@@H](C)O)NC(=O)[C@H](Cc2ccccc2)NC(=O)[C@H]([C@@H](C)O)NC(=O)[C@H]([C@@H](C)O)NC(=O)[C@H](CCC(=O)O)NC(=O)[C@H](CC(C)C)NC(=O)[C@H](Cc2c[nH]cn2)NC(=O)[C@H]([C@@H](C)O)NC(=O)[C@H](CCC(N)=O)NC(=O)CNC(=O)[C@H]2CCCN2C(=O)[C@H](CCC(N)=O)NC(=O)[C@H](CCCNC(=N)N)NC(=O)[C@H](C(C)C)NC(=O)[C@H](CCCNC(=N)N)NC1=O) [cyclic nNOS β-hairpin peptide T123R] | 1.59 | 1.06
5 | cyclo(THLETTFTGDGTPKTIRRTQ[dP]GQ) (SMILES CC[C@H](C)[C@@H]1NC(=O)[C@H]([C@@H](C)O)NC(=O)[C@H](CCCCN)NC(=O)[C@@H]2CCCN2C(=O)[C@H]([C@@H](C)O)NC(=O)CNC(=O)[C@H](CC(=O)O)NC(=O)CNC(=O)[C@H]([C@@H](C)O)NC(=O)[C@H](Cc2ccccc2)NC(=O)[C@H]([C@@H](C)O)NC(=O)[C@H]([C@@H](C)O)NC(=O)[C@H](CCC(=O)O)NC(=O)[C@H](CC(C)C)NC(=O)[C@H](Cc2c[nH]cn2)NC(=O)[C@H]([C@@H](C)O)NC(=O)[C@H](CCC(N)=O)NC(=O)CNC(=O)[C@H]2CCCN2C(=O)[C@H](CCC(N)=O)NC(=O)[C@H]([C@@H](C)O)NC(=O)[C@H](CCCNC(=N)N)NC(=O)[C@H](CCCNC(=N)N)NC1=O) [cyclic nNOS β-hairpin peptide V122R] | 1.69 | 1.13
6 | cyclo(THLETTFTGDGTPKTIRYTQ[dP]GQ) (SMILES CC[C@H](C)[C@@H]1NC(=O)[C@H]([C@@H](C)O)NC(=O)[C@H](CCCCN)NC(=O)[C@@H]2CCCN2C(=O)[C@H]([C@@H](C)O)NC(=O)CNC(=O)[C@H](CC(=O)O)NC(=O)CNC(=O)[C@H]([C@@H](C)O)NC(=O)[C@H](Cc2ccccc2)NC(=O)[C@H]([C@@H](C)O)NC(=O)[C@H]([C@@H](C)O)NC(=O)[C@H](CCC(=O)O)NC(=O)[C@H](CC(C)C)NC(=O)[C@H](Cc2c[nH]cn2)NC(=O)[C@H]([C@@H](C)O)NC(=O)[C@H](CCC(N)=O)NC(=O)CNC(=O)[C@H]2CCCN2C(=O)[C@H](CCC(N)=O)NC(=O)[C@H]([C@@H](C)O)NC(=O)[C@H](Cc2ccc(O)cc2)NC(=O)[C@H](CCCNC(=N)N)NC1=O) [cyclic nNOS β-hairpin peptide V122Y] | 1.27 | 0.85
7 | cyclo(THLETTFTGDGTPKTIRFTQ[dP]GQ) (SMILES CC[C@H](C)[C@@H]1NC(=O)[C@H]([C@@H](C)O)NC(=O)[C@H](CCCCN)NC(=O)[C@@H]2CCCN2C(=O)[C@H]([C@@H](C)O)NC(=O)CNC(=O)[C@H](CC(=O)O)NC(=O)CNC(=O)[C@H]([C@@H](C)O)NC(=O)[C@H](Cc2ccccc2)NC(=O)[C@H]([C@@H](C)O)NC(=O)[C@H]([C@@H](C)O)NC(=O)[C@H](CCC(=O)O)NC(=O)[C@H](CC(C)C)NC(=O)[C@H](Cc2c[nH]cn2)NC(=O)[C@H]([C@@H](C)O)NC(=O)[C@H](CCC(N)=O)NC(=O)CNC(=O)[C@H]2CCCN2C(=O)[C@H](CCC(N)=O)NC(=O)[C@H]([C@@H](C)O)NC(=O)[C@H](Cc2ccccc2)NC(=O)[C@H](CCCNC(=N)N)NC1=O) [cyclic nNOS β-hairpin peptide V122F] | 1.34 | 0.89
8 | cyclo(THLETTFTGDGTPKTIRVYQ[dP]GQ) (SMILES CC[C@H](C)[C@@H]1NC(=O)[C@H]([C@@H](C)O)NC(=O)[C@H](CCCCN)NC(=O)[C@@H]2CCCN2C(=O)[C@H]([C@@H](C)O)NC(=O)CNC(=O)[C@H](CC(=O)O)NC(=O)CNC(=O)[C@H]([C@@H](C)O)NC(=O)[C@H](Cc2ccccc2)NC(=O)[C@H]([C@@H](C)O)NC(=O)[C@H]([C@@H](C)O)NC(=O)[C@H](CCC(=O)O)NC(=O)[C@H](CC(C)C)NC(=O)[C@H](Cc2c[nH]cn2)NC(=O)[C@H]([C@@H](C)O)NC(=O)[C@H](CCC(N)=O)NC(=O)CNC(=O)[C@H]2CCCN2C(=O)[C@H](CCC(N)=O)NC(=O)[C@H](Cc2ccc(O)cc2)NC(=O)[C@H](C(C)C)NC(=O)[C@H](CCCNC(=N)N)NC1=O) [cyclic nNOS β-hairpin peptide T123Y] | 1.87 | 1.25

From patent publication US20230220021A1 (UNIVERSITY OF COPENHAGEN, published 2023)
